Assay results from patent US20180099046A1 (JIANGSU HENGRUI MEDICINE, published 2018).
Positions count from the first letter of the chain named.

B1: humanized antibody Ab-5 (antibody, human IgG4 S228P, kappa, V domains shown)
VH: EVQLVQSGAEVKKPGASVKVSCKASGYTFTDYNLDWLRQAPGEGLEWIGDIDPNDGDILYNQKFRDRVTMTTDTSTSTAYMELRSLRSDDTAVYYCARRWAYYFDYWGQGTTVTVSS
VL: DIVMTQSPSSLSASVGDRVTITCKASQSVSNDVAWYQQKPGKSPKLLIYYTSNRFTGVPDRFSGSGSGTDFTLTISSLQPEDFATYFCQQDYSSPVTFGGGTKVEIKR
notes: also called humanized anti-SOST antibody
B2: humanized antibody Ab-10 (antibody, human IgG1, kappa, V domains shown)
VH: B1 VH with L37V, E43Q, I48M, D55N
VL: B1 VL with V3Q, S43A, D60S, F87Y
B3: humanized antibody Ab-9 (antibody, human IgG4 S228P, kappa, V domains shown)
VH: B1 VH with D55N
VL: B1 VL with D1N
B4: murine anti-human sclerostin monoclonal antibody Ab-1 (antibody, V domains shown)
VH: EVQLQQSGPELVKPGTSVKIPCQTSGYTFTDYNLDWLKQRPGESLEWIGDIDPNNGDILYNQKFRDKATLTVDTSSNTAYLELRSLTSEDTAVYYCARRWAYYFDYWGQGTTLTISS
VL: NIVMTQTPKLLFVSAGDRITITCKASQSVSNDVAWYQQKPGQSPKLLIYYTSNRFTGVPDRFTGSGYGTDFTLTINTVQAEDLAVYFCQQDYSSPVTFGAGTKLELK
notes: Mouse hybridoma antibody; also called parental antibody; murine antibody
B5: Romosozumab (antibody, V domains shown)
VH: EVQLVQSGAEVKKPGASVKVSCKASGYTFTDYNMHWVRQAPGQGLEWMGEINPNSGGAGYNQKFKGRVTMTTDTSTSTAYMELRSLRSDDTAVYYCARLGYDDIYDDWYFDVWGQGTTVTVSS
VL: DIQMTQSPSSLSASVGDRVTITCRASQDISNYLNWYQQKPGKAPKLLIYYTSRLLSGVPSRFSGSGSGTDFTLTISSLQPEDFATYYCQQGDTLPYTFGGGTKVEIK

How the values were obtained:
[1] = biological target: T1, human sclerostin protein (R&D SYSTEM, 1406-ST/CF) (human, UniProt Q9BQB4 24-213, biotinylated in the LRP-6 blocking assay; not labelled in Biacore); experiment: competition ELISA: antibody blocks binding of biotinylated human sclerostin to captured LRP-6-Fc
T1 construct: Bought protein; also called human SOST; SOST (R&D, Catalog #1406-ST-025)
T1 sequence (looked up): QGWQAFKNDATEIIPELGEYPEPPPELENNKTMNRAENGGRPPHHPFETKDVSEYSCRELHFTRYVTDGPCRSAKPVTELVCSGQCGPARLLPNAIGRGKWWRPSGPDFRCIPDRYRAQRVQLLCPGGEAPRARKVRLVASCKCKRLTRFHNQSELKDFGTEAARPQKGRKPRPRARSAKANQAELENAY
Experimental: (§1) In the method, goat anti-human Fc antibody was coated onto a 96-well EIA/RIA plate, and then LRP-6-Fc fusion protein was added for incubation. The biotinylated sclerostin protein and the anti-sclerostin antibody were co-incubated, and then added to the plate for incubation. After washing the plate, the binding amount between biotinylated sclerostin and LRP-6 was measured, and the IC₅₀ value of the blocking activity of the sclerostin antibody was calculated.
(§2) The goat anti-human Fc antibody was diluted to a concentration of 1 μg/ml with PBS buffer at pH 7.4 (Sigma, P4417-100TAB), and added to a 96-well EIA/RIA plate at a volume of 100 μl/well. Then, the plate was incubated at 37° C. for 2 hours. After discarding the liquid, the plates were blocked with 200 μl/well of blocking solution containing 5% skim milk (Guangming skim milk) in PBS, and incubated at 37° C. for 2.5 hours. After blocking, the blocking solution was discarded and the plate was washed 5 times with PBST buffer (pH 7.4 PBS containing 0.05% tween-20). LPR-6-Fc fusion protein (R&D SYSTEM, 1505-LRP-025) was diluted with sample dilution buffer (pH 7.4 PBS containing 1% BSA) to 1 μg/ml and 50 μl/well was added, then the plate was incubated at 37° C. for 2 hours. […]

[2] = biological target: T1, human sclerostin protein (R&D SYSTEM, …); experiment: cell-based or functional assay
[3] = biological target: T2, human sclerostin with a Flag tag (h-SOST-Flag) (human, UniProt Q9BQB4 24-213, biotinylated (biotin labeling kit) in the ELISA); experiment: binding ELISA, biotinylated h-SOST-Flag on streptavidin plate
T2 construct: also called SOST-FLAG protein; not shown: C-terminal Flag tag
T2 sequence (looked up): T1 sequence (looked up)
Experimental: (§3) ELISA experiments were used to detect the binding properties of sclerostin antibodies. Sclerostin with a Flag tag (h-SOST-FLAG, encoded by SEQID NO: 2) was biotinylated with a biotin labeling kit (Dojido Chem, LK03), and immobilized onto a 96-well EIA/RIA plate via binding to streptavidin coated on it. After the antibody was added, the strength of the signal was used to determine the binding activity between the antibody and human sclerostin.
Streptavidin (Sigma, S4762-5MG) was diluted to a concentration of 5 μg/ml with PBS buffer at pH 7.4 (Sigma, P4417-100TAB), and added to a 96-well EIA/RIA plate (Corning,CLS3590-100EA) at a volume of 50 μl/well. Then, the plate was incubated in an incubator at 37° C. for 2 hours. The liquid was discarded, the plates were blocked with 200 μl/well of blocking solution containing 5% skim milk (Guangming skim milk) in PBS, and incubated in an incubator at 37° C. for 2.5 hours or overnight (16-18 hours) at 4° C. After blocking, the blocking solution was discarded and the plate was washed 5 times with PBST buffer (pH 7.4 PBS containing 0.05% tween-20). Biotinylated SOST-FLAG protein (R&D SYSTEM, 1505-LR-025) was diluted with sample dilution buffer (pH 7.4 PBS containing 1% BSA) to 0.5 μg/ml and was added to each well at 50 μl/well, then the plate was incubated in the incubator at 37° C. for 2 hours. After incubation, the reaction solution in the plate was discarded, and the plate was washed with PBST 6 times, and then 50 μl/well of gradient dilution antibody with sample dilution buffer was added, and the plate was incubated in a incubator at 37° C. for 2 hours. The plate was washed 6 times with PBST after incubation, added with 100 μl/well of HRP-labeled goat anti-mouse (Jackson Immuno Research, Cat No. 115-035-003) or HRP-labeled goat anti-human secondary antibody (Jackson Immuno Research, Cat No. 109-035-003) diluted in sample dilution, and incubated at 37° C. for 1 hour. After washing the plates with PBST 6 times, 50 μl/well of TMB substrate (KPL, Cat No. 52-00-03) was added to each well, and incubated at room temperature for 10-15 min, and the reaction was stopped by adding 50 μl 1M H₂SO₄ to each well. The OD value at a wavelength of 450 nm was read on a NOVOStar microplate reader, and then EC₅₀ values of the binding between the sclerostin antibody of the present invention and human sclerostin were calculated.

[4] = biological target: T1, human sclerostin protein (R&D SYSTEM, …); experiment: SPR (Biacore)
[5] = biological target: T3, cynomolgus monkey sclerostin with a Flag tag (cyno-SOST-Flag) (cynomolgus monkey); experiment: SPR (Biacore)
T3 construct: also called monkey SOST

[6] = biological target: T3, cynomolgus monkey sclerostin with a …; experiment: competition ELISA: antibody blocks binding of monkey sclerostin to captured LRP-6-Fc
Experimental: as §1, §2

[7] = biological target: T1, human sclerostin protein (R&D SYSTEM, …); experiment: SPR (Biacore X100), antibody captured by anti-human antibody, SOST as analyte, 1:1 Langmuir fit
From the text: (§4) The anti-human capture antibody was covalently linked to the CMS biosensor chip (Cat. #BR-1000-12, GE) of a Biacore instrument (Biacore X100, GE) according to the method described in the instructions of anti-human trapping kit (GE, Cat.# BR-1008-39) for affinity capturing an amount of a test antibody. Then, a gradient of concentrations of SOST antigen (human SOST, R&D SYSTEM, Cat.#1406-ST-025/CF, R&D; monkey SOST, cyno-SOST-Flag, obtained by purification, encoded by SEQ ID NO: 4 of Example 1; murine SOST, m-SOST-Flag, obtained by purification, encoded by SEQ ID NO: 3 of Example 1) were flowed through the surface of the biochip. The reaction signal was detected in real-time using a Biacore instrument (GE, BiacoreX100) to obtain the association and dissociation curves. After each cycle of dissociation was finished in the experiment, the biochip was washed and regenerated with regeneration solution in the anti-human capture kit.
(§5) The amino-coupled kit used in the experiments was purchased from GE (Cat. #BR-1000-50, GE), and the buffer was HBS-EP+10× buffer solution (Cat. #BR-1006-69, GE), and the buffer was diluted to 1× (pH 7.4) with D.I. Water.
(§6) The data obtained was fitted by GE BlAevaluation version 4.1 software using a 1:1 Langmuir model, and the affinity value was generated.

[8] = biological target: T3, cynomolgus monkey sclerostin with a …; experiment: as above
From the text: as §4, §5, §6

[9] = biological target: T1, human sclerostin protein (R&D SYSTEM, …); experiment: competition ELISA: antibody blocks binding of biotinylated human sclerostin to captured LRP-6-Fc (Test Example 2)
Experimental: as §1, §2

[10] = biological target: T2, human sclerostin with a Flag tag …; experiment: binding ELISA, biotinylated h-SOST-Flag on streptavidin plate (Test Example 1)
Experimental: as §3
Streptavidin (Sigma, S4762-5MG) was diluted to a concentration of 5 μg/ml with PBS buffer at pH 7.4 (Sigma, P4417-100TAB), and added to a 96-well EIA/RIA plate (Corning,CLS3590-100EA) at a volume of 50 μl/well. Then, the plate was incubated in an incubator at 37° C. for 2 hours. The liquid was discarded, the plates were blocked with 200 μl/well of blocking solution containing 5% skim milk (Guangming skim milk) in PBS, and incubated in an incubator at 37° C. for 2.5 hours or overnight (16-18 hours) at 4° C. After blocking, the blocking solution was discarded and the plate was washed 5 times with PBST buffer (pH 7.4 PBS containing 0.05% tween-20). […] The OD value at a wavelength of 450 nm was read on a NOVOStar microplate reader, and then EC₅₀ values of the binding between the sclerostin antibody of the present invention and human sclerostin were calculated.

Binder | IC50 [1] | Cell activity EC50 (nM): alkaline phosphatase (ALP) activity in C2C12 cells given wnt3a and SOST [2] | EC50 [3] | fold affinity against the positive molecule (Romosozumab) [4] | fold affinity against the positive molecule (Romosozumab) [5] | IC50 [6] | Kd [7] | Kd [8] | IC50 [9] | EC50 [10]
B1 | 23.5 nM | 84.7 nM | 0.63 nM | ~10 times | > 10 times | 110 nM | 0.064 nM | 0.03 nM | – | –
B2 | – | – | 0.54 nM | – | – | – | – | – | – | –
B3 | – | – | 0.4 nM | – | – | – | – | – | – | –
B4 | – | – | 0.701 nM | – | – | – | – | – | 9.91 nM | 0.701 nM
B5 | 27.9 nM | 71.6 nM | – | – | – | 46.8 nM | 0.67 nM | 0.52 nM | – | –
